Results taken from a protein production outcome set (Wang et al. 2014).

Experiment: label from the status in PepcDB records
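Further: failed if final PepcDB status was selected cloned or expressed and not failed if soluble or beyond.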

Sequence | protein production
MNKVLINDTTLRDGEQAAGVVFTLEEKVAIAKFLDTIGVPELEVGIPAMGEEEMRAICAISNLGLKANLLAWNRAVISDIKASVACGMERVHIAIPVSGIQIAAKFHGQWRVSLQRLKDCISFAVDQGLWVAVGGEDSSRADENFLLDVALYAQEWGASRFRFCDTVGVLDPFTTYGKVKLLVSALTIPVEVHTHNDFGMATANALAGIKAGASSVNTTVIGLGERAGNAALEEVVMAIKRIYGVDMGIDTPRLLELSQLVAAASGANVPPWKAIVGENTFAHESGIHAHGVLQNPDTYEPFAPEEVGWERRLVVGKHSGRHSVSNLLEQHGIFLNPEETQSVLDAVRQQSIKKKRSLTTEELLNLVKEQRYSHAAR | failed
MQVSREFKGIFLASISATFWGISGAVAQTLFDTTDINSIWLTGIRMLGAGIALLLVSLLTHVDLWSIWRQPRDLLQIVAYTLLGLMPVQFTYFLAVEASNAATGTILQFMGPVFIALWMLVAHRQLPTRAEGLAIICALLGSFLLVTHGNPQTLVISVWALIWGLLSGVSSATNTLLPTKLLTKYDPMTVNTWSMLLGGILFNIVQPVWSIHIPLTMLNISKLTFVVLFGTLLAFLFFLQSLQYIRPTVVSLLDAFEPLSATIIAVVLLGVSFGWLDILGSVLIISTVFILAIGQGPNDRTAENFKQP | failed
KSEIGKYAPFFSLPNAKGEKITRSSDAFKQKSLLINFWASWNDSISQKQSNSELREIYKKYKKNKYIGMLGISLDVDKQQWKDAIKRDTLDWEQVCDFGGLNSEVAKQYSIYKIPANILLSSDGKILAKNLRGEELKKKIENIVEEA | not failed
MADLFDGMKRRMDALIAERFGMKVNINGTDCIVVESDFLAELGPVEGNGKNVVVFSGNVIPRRGDRVVLRGSEFTVTRIRRFNGKPQLTLEENNGGKGA | not failed
MLSVFLEIIYERQLRKINLKILTDFINLIKEESLSNGAEFIQVQGGFYFLFKKKSIAYAFSTARFLYNVNKILISYKNKISEVRCITDYYEEDVSNEALFESLSLYKKQLIPEMGMFASREAANKLSKYIDFNETDSSILLCNAFKFFENINLTSNKNADKNASIILHRNDNYFWSIYNFILANPLDNDSLKAMSNEDRISFLATKNVYIYLKKHRFSKDMPQYFIDAFLTNAAIYLKNYIKKQNGRRSVKVLIDNLNDKKNLDEAEKIYAVNKYMEIEALDSSLPSIYNIPDDLLQLIYIILVSSKYFFYDEITDFLVSLNKSKAFFDDVYAWMYSMGIILVENNIYAVPYGLPEIIERRINLSKNMVDSNITEYLWAKYKKGILNANSDAEKIFDSLNFKCKPDFLLASIFHNYSDSSIEGLDLKKYKNEIFYDALKYYQNSIIANIDDSTAKSYAYLKTAIGFFQENKLESGEYRAFSLLAFFNLMQNKISDAITYFSYALDNAEHSHDTSFICDALFNISIVYFLQNNLKQSITFLDRLAAAVDEYFEQDWKIPYLFMKGRVYLQIGEFNKAADSFRMASDFADLYFDKIEPLCKSWYGRSLIYMGQIKNGQEILIKYIDYTDDALLFLLESFLFYPVLNNDFEKMDLDISSIYSAYNNSGLTDFINLKSGFSIAEDLIWSNIYDMSIGKKMFDAFYNYYNCKINFSKMYDIEECKILLSNLEASAVESLYQNDPYSSLYMYLCYDLSVKLYGENSSQTIAYLSKAFKSMQKNVLAIGENDIRDKYMQNNLWNSKLFKVAKNQKLI | failed
MEQNSYVIIDETGIHARPATMLVQTASKFDSDIQLEYNGKKVNLKSIMGVMSLGVGKDAEITIYADGSDESDAIQAISDVLSKEGLTK | not failed
MRTTADRIRHTVGFELIGLLIFAPLASLVFGYALHQMGLVGAVASLIAAVWNYVYNILFDRGMLRFTGQLRKTPAIRVLHAILFEGGLLLVFLPSVAWYLDMTLLDAFIMDIAVAGFYMVYALVYNWVYDAVFPIPGLKAKEDSQPADCPSAN | failed
MVVNESMYQLGSVRSAIRELFEYGKKRAAIVGKENVYDFSIGNPSIPAPQIVNDTIKELVTDYDSVALHGYTSAQGDVETRAAIAEFLNNTHGTHFNADNLYMTMGAAASLSICFRALTSDAYDEFITIAPYFPEYKVFVNAAGARLVEVPADTEHFQIDFDALEERINAHTRGVIINSPNNPSGTVYSEETIKKLSDLLEKKSKEIGRPIFIIADEPYREIVYDGIKVPFVTKYYDNTLVCYSYSKSLSLPGERIGYVLVPDEVYDKAELYAAVCGAGRALGYVCAPSLFQKMIVKCQGATGDINAYKENRDLLYEGLTRIGYHCFKPDGAFYMFVKALEDDSNAFCEKAKEEDVLIVAADGFGCPGWVRISYCVDREMIKHSMPAFEKIYKKYNK | not failed
MANVKLLLPYILKWEGGFVHDPADAGGATNKGVTIATWKRVGYDKDGDGDIDVEDLKLLTDDDVLNRVLKPFYWDRWKADLIESQKVANILVDWVWGSGKYGIVIPQRILGVQADGIVGNKTLQAVNSADPDELFESIFDARREFLEDITARSIKKYEDSIGRKATERELLRHTNKRFLRGWLNRLEDIRKL | not failed
MSVEIKRVDKHHCLDLVEIFIELEQYYFGDKAASEQDLANYLSHQVFSEHSGVKVIAAVEHDKVLGFATYTIMFPAPKLSGQMYMKDLFVSSSAPGKGIGLQLMKHLATIAITYNCQRLDWTAESTNPTARKFYKSIGASLIREKEYYRFEGNGLNKLAKSL | not failed
KGDDNYYIIFTSGTTGQPKGVQISHDNLLSFTNWMIEDAAFDVPKQPQMLAQPPYSFDLSVMYWAPTLALGGTLFALPKELVADFKQLFTTIAQLPVGIWTSTPSFADMAMLSDDFCQAKMPALTHFYFDGEELTVSTARKLFERFPSAKIINAYGPTEATVALSAIEITREMVDNYT | failed
MKIATIKTGLASLAMLPGLVMAAPAVADKADNAFMMICTALVLFMTIPGIALFYGGLIRGKNVLSMLTQVTVTFALVCILWVVYGYSLAFGEGNNFFGNINWLMLKNIELTAVMGSIYQYIHVAFQGSFACITVGLIVGALAERIRFSAVLIFVVVWLTLSYIPIAHMVWGGGLLASHGALDFAGGTVVHINAAIAGLVGAYLIGKRVGFGKEAFKPHNLPMVFTGTAILYIGWFGFNAGSAGTANEIAALAFVNTVVATAAAILGWIFGEWALRGKPSLLGACSGAIAGLVGVTPACGYIGVGGALIIGVVAGLAGLWGVTMLKRLLRVDDPCDVFGVHGVCGIVGCIMTGIFAASSLGGVGFAEGVTMGHQLLVQLESIAITIVWSGVVAFIGYKLADLTVGLRVPEEQEREGLDVNSHGENAYNA | failed
MKRFCNGLLASALVLSLLLTGCGAAGGQQPAQASGPEQPAVRTVTDAEGNVVEVPQDISRIAVTPLPWSSVVSAIDGGSQRLASINPGALKAYSGSFFAKLDKNYATLDDTSIGSDFSINVEELLNRQVQVVIIWEYQTAEAAKLKDVGIVPVMVKNGNVQELQDSFKAVGQLLGKEERAKWVNDEYAKAYEKMKSYGEQVKKADKPRVLYLKRSDLTLQGNDNFIKESMELAGADNIAAEAKSITMEEILKLDPEIILLSDFDKFLPQDLYENRIEGQDWSSVSAVVNKRVYKTPVGIYRWDAPGVETPLMMFWLGKMLQPEIFSEVDLKAEMKAFYQDVFDYSLTDEDFGQIFNDKANAASERRIS | failed
MQEKGNISIHTENIFPIIKKFLYSDHEIFLRELVSNAVDATQKLKRLAALGEYPGELGDTKVTVSVNKEAGTITITDRGIGMTAEEIKKYINQIAFSGATEFIEKYKDKTDTNQIIGHFGLGFYSAFMVSSNVEINTLSYQPNSKAAHWICDGSTEFEIKLSDKAERGSEITLHIAEDSLEFLETSRIHSILDKYCRFLPVEIEFEGEIINNPSPLWTKQPSELKDEDYIAFYKELYPMSEDPLFWIHLNVDYPFSLTGVLYFPKLKKDFEFQRNKIQLYSRQVFITDEVKDIVPEFLMLLHGVIDSPDIPLNVSRSFLQADGNVKKINSHITKKVADKLNELFNNDRAGFEAKWDDIGMFVKYGMISEEKFYDKAKNFCLLKNTDNALSTIEEYEQKIKPIQTDKNDKLVYLYSNNAVAQDIFIQAAKKKQYDVLLLDSVIDSHFLGQLESKLEKVQFKRIDSESVDKLIEKDEPKLSLLTKEQETQAEELFKKVVNNGKVIIKLEHLATDDMPVTIVISEFMRRMKDMAATSGQSMFGGFELTHEVVVNTNHPLIAKAIAAPEAEGEQLIKQTYQLGLLSQGLLQGAELSAFIERNMNALVK | failed
MSAPQAPSAPHSPPDVPVMQVIFGLMLAIMLGALEQSIVAVVLPEIALQLNGFEDMAWVISAYLVASTVVTPIYGKLSDVLGRRSVLTFSIVLFVLASIACAMATTMPMLIVARILQGLGGGGLISVSQATIADVVPLRERGKYQGYVSGVWAVASMAGPVIGGYLAHFLSWRWIFWINIPLGLIALIVVRRALRHLPVSGRKHRIDYLGALLFGGGLSGVLVFLTRMGQGHSPLEPQTIGLLAAGLIGLVLFIWQERRAVDPVIPLKMLAVPTVAICCLTLFLCFFQLIAMSVLLPLRFQVVGGAGADTAALRLVPLTLAIPFGAYASGRLMSWSGRYKPLQLAGCLVAPIAIVGLAFVPPQAVVPAALVMIVLGLSIGLQLPSGLVATQNSVPPQQVGIATALTAFSRLLGGAVGVAVLTTVLIALLRHSGMAVSDLHGGEDVLMSMFRRAMDAGDQGDAAAVREAAEHAFRLLFLMSAGVSLIAPFFVMRLKEKTLRGSPAGAAASAAAE | failed
MAHGIPSQGKVTITVDEYSSNPTQAFTHYNINQSRFQPPHVHMVDPIPYDTPKPAGHTRFVCISDTHSRTDGIQMPYGDILLHTGDFTELGLPSEVKKFNDWLGNLPYEYKIVIAGNHELTFDKEFMADLVKQDYYRFPSVSKLKPEDFDNVQSLLTNSIYLQDSEVTVKGFRIYGAPWTPWFNGWGFNLPRGQSLLDKWNLIPEGIDILMTHGPPLGFRDWVPKELQRVGCVELLNTVQRRVRPKLHVFGGIHEGYGIMTDGYTTYINASTCTVSFQPTNPPIIFDLPNPQGS | failed
MAPRYDTLFYDGSCPLCAREIRTLRRLQTGNLIFADIHEQNPSNQQLPSREQLLRRLHLMSWNGEWVTGLHANVRAWSHTRFGWLFKPLLWPVIHPIASRIYETWADKRYGRKYACAMGHENSCPPGT | failed
MTVETFHPKQTTTLETPAKTLEAASADSVNTGNVATGNRIGFVSLGCPKNLVDSERILTQLRIDGYEVTNSYDNADLVIVNTCGFIDAAVEESLDAVREALEENGKVIVTGCLGAKENQIREVHPDVLEITGPHSYEAVLKHVHKYVPKPEHNPFTSLIPQTGVKLTPKHYAYLKISEGCDNRCTFCIIPALRGDLDSRGAGSVLDEAKRLVEAGVQEILVVSQDTSAYGKDKGGRTDFWNGMPVKQDITSLARQLGKMGAWVRLHYIYPYPWVDDLIPLMAEGLILPYLDIPMQHASPRILKMMKRPGRVDRQLEAIQRWREICPDLVIRSTFIVGFPGETEEDFEMLLDFLREARLDRVGCFKYSEVEGAVANTIAELISEEVKEDRYHRFMEVQAEISAERLARFVGRTMDILIDDVDEEGAIGRSFADAPEIDGMVFINGETELEPGMLVRAVITHSDEHDLWAELVDADAEDEVEALEHHHHHH | not failed
MPYTVRFTTTARRDLHKLPPRILAAVVEFAFGDLSREPLRVGKPLRRELAGTFSARRGTYRLLYRIDDEHTTVVILRVDHRADIYRR | not failed
MGHHHHHHSHMVASWELRVEGRLLEDSALSKYDATKQKRKFSSFFKSLVIELDKDLYGPDNHLVEWHRTATTQETDGFQVKRPGDVNVRCTVLLMLDYQPPQFKLDPRLARLLGIHTQTRPVIIQALWQYIKTHKLQDPHEREFVI | failed
QQMETGDQRFGDLVFRQLAPNVWQHTSYLDMPGFGAVASNGLIVRDGGRVLVVDTAWTDDQTAQILNWIKQEINLPVALAVVTHAHQDKMGGMDALHAAGIATYANALSNQLAPQEGMVAAQHSLTFAANGWVEPATAPNFGPLKVFYPGPGHTSDNITVGIDGTDIAFGGCLIKDSKAKSLGNLGDADTEHYAASARAFGAAFPKASMIVMSHSAPDSRAAITHTARMADKLR | not failed
